Biological target: (opt)EsTKγ (Eptatretus stouti thread keratin γ, from a codon-optimised gene) (Eptatretus stouti)
Experiment: co-assembly by dialysis out of urea, gel separated by ultrafiltration centrifugation and analysed by SDS-PAGE; crudely purified proteins, each 1.0 mg/ml in 8 M urea, 0.02 M NaH2PO4, 0.5 M NaCl, mixed 1:1; gradient dialysis 8 M to 4 M to 2 M to 0 M urea in 2 mM Tris, 1 mM DTT, pH 9, 4°C, 72 h; concentrated in a 10 kDa ultrafiltration tube; gel-like product picked up, diluted and run on SDS-PAGE

Work on “(opt)EsTKα (Eptatretus stouti thread keratin α, from a codon-optimised gene) (natural protein)” yielded a stoichiometry N of 1.
